# According to patent US6994976:
# Target: mouse TR3 (mouse) (UniProt Q925D8)
# Test: flow cytometry on ConA-activated murine CD8+ T-cells, control stain
# Sequence of UniProt Q925D8 (Q925D8 whole entry): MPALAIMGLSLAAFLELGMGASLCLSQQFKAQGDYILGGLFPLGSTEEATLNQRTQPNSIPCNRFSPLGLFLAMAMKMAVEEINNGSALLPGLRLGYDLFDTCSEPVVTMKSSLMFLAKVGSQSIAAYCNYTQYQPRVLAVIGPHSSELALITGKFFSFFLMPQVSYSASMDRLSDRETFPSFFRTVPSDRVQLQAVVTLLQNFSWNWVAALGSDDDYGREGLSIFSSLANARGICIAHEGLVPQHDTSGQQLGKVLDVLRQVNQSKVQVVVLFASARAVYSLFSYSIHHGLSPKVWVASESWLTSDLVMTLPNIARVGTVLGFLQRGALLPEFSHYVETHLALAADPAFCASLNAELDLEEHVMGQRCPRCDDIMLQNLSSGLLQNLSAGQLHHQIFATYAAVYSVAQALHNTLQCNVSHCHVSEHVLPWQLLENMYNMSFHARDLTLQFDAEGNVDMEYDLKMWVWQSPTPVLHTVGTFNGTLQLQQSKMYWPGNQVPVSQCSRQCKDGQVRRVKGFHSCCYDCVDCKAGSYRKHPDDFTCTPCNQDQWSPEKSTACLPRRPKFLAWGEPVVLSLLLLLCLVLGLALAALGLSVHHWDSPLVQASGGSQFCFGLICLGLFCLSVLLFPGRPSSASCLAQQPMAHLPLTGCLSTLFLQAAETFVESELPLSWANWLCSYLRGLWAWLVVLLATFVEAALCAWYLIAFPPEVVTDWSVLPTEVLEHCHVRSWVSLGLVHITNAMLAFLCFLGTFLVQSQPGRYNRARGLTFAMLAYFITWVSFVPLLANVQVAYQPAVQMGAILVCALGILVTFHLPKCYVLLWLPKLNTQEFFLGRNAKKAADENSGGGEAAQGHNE
substance,measurement,value
normal (non-immune) rat serum (antibody),"percent of cells within the marker-1 (M1, unstained) region",99%
